Seven molecules from article PMC8131325 (The Journal of Biological Chemistry, 2021) can be followed below.

One may read the stoichiometry N as the number of molecules, sites or subunits per partner or assembly. A word on the Kd: it is a measure of binding affinity in units of concentration. A word on the koff: it is the first-order rate constant of dissociation. Broadly, the kon is the second-order rate constant of association.

B1: αSynP130-140 (peptide)
peptide: EEGYQDYEPEA
notes: also called α-synuclein decoy peptide; C-terminal peptide of αSyn; source: synthetic peptide (SCRUM Inc or BEX Co Ltd)
B2: αSynP130-140 Y133F (peptide)
peptide: EEGFQDYEPEA
notes: source: synthetic peptide (SCRUM Inc or BEX Co Ltd)
B3: αSynP130-140 Y133F/Y136F (peptide)
peptide: EEGFQDFEPEA
notes: as for B2
B4: αSynP130-140 Y136W (peptide)
peptide: EEGYQDWEPEA
notes: as for B2
B5: αSynP130-140 Y136F (peptide)
peptide: EEGYQDFEPEA
notes: as for B2
B6: αSynP130-140 Y133F/Y136W (peptide)
peptide: EEGFQDWEPEA
notes: as for B2
B7: αSynP130-140 Y133W/Y136W (peptide)
peptide: EEGWQDWEPEA
notes: as for B2

T2 sequence (P05413 whole entry): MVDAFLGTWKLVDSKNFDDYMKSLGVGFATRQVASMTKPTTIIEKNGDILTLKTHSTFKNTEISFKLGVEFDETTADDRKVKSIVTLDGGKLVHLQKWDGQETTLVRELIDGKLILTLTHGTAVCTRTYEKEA
T1 sequence (P05413 whole entry): as above

One test addresses T1, fatty acid binding protein 3 (UniProt P05413 1-133).
T1 construct: synthetic gene (Invitrogen GeneArt) in pET28a between NcoI and XhoI; Untagged FABP3; also called FABP3; H-FABP; source: E. coli BLR(DE3), purified (Resource-Q anion exchange column), delipidized, lyophilized
In words: other fluorescence titration; ANS fluorescence (5 μM ANS, emission at 460 nm) of 2 μM FABP3 with increasing concentrations of αSyn or αSynP130-140; 50 mM Tris-HCl pH 7.4. As to conditions: both partners purified.
Consider B1, for which the “stoichiometry N” value is about 1.

Another test concerns the target T2, FABP3 with N-terminal His6 tag (UniProt P05413 1-133).
T2 construct: synthetic gene (Invitrogen GeneArt) in pET28a between NdeI and XhoI; Apo (delipidized) form; held on the Ni-NTA quartz sensor by the His6 tag; also called His6-FABP3; not shown: His6, N-terminal, kept
Kind of test: quartz crystal microbalance (QCM); His6-FABP3 (or FABP3 F16S) immobilised on the gold-plated quartz sensor through Ni-NTA groups; αSyn, its variants or peptides added at varying concentrations; room temperature; 50 mM Tris-HCl pH 7.4; kobs = koff + kon[αSyn], Kd from kon and koff (AQUA 2.0). As to conditions: both partners purified.
B1: the Kd stood at 6.1 nM, the koff was found to be 0.0012 s⁻¹ and the kon was 200000 M⁻¹ s⁻¹.
B2: the Kd stood at 2 nM, the koff came out at 0.0015 s⁻¹ and the kon stood at 750000 M⁻¹ s⁻¹.
As for B3, the Kd came out at 2.1 nM, the koff is 0.0011 s⁻¹ and the kon came out at 540000 M⁻¹ s⁻¹.
For B4, the Kd stood at 6.3 nM, the koff stood at 0.0024 s⁻¹ and the kon was 380000 M⁻¹ s⁻¹.
The matching figures for B5: 7.7 nM, 0.0037 s⁻¹ and 480000 M⁻¹ s⁻¹.
As for B6, the Kd turned out to be 6.1 nM, the koff came to 0.0019 s⁻¹ and the kon came out at 320000 M⁻¹ s⁻¹.
In the case of B7, the Kd was 6.2 nM, the koff stood at 0.0015 s⁻¹ and the kon is 240000 M⁻¹ s⁻¹.
